Assay results as given in publication PMC8961561, “PEPscan: A Broad Spectrum Approach for the Characterization of Protein-Binder Interactions?” (Biomolecules, 2022).
Each block holds one binder with its values, some of them ahead of it.

Legend:
[1] = molecular target: T1, SLAM-Associated Protein (SAP) (UniProt O60880 1-128); assay: peptide or protein array; PEPscan: overlapping dodecapeptides (two amino acid shift) spanning the complete sequence of one partner on a cellulose membrane; saturated with 3% non-fat dry milk/3% BSA; incubated with the purified protein partner (4 mg/mL, 4 °C, overnight); antibody against that protein, HRP-conjugated secondary antibody, ECL; conditions: both partners purified
T1 construct: SAP, UniProt O60880, full size 128
T1 sequence (looked up): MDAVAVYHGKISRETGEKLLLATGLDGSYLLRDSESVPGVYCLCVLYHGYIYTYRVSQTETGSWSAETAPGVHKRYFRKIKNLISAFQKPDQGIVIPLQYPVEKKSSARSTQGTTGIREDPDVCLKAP

TIMP-1 = molecular target: T2, TIMP-1 (UniProt P01033 24-207); assay: as above; conditions: both partners purified
T2 construct: TIMP-1, UniProt P01033, full size 207
T2 sequence (P01033 24-207): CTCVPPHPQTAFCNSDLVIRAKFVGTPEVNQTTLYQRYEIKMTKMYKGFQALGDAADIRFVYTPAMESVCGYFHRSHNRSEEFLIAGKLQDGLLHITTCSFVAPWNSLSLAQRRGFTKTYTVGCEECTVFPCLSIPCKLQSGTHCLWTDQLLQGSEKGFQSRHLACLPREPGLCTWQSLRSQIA

binding result [1]: binds
B1: Fyn fragment ALYDYEARTEDDLSFH (peptide)
peptide: ALYDYEARTEDDLSFH
notes: stretch of Fyn; union of positive overlapping dodecapeptide spots 2:14–16; also called FSYN-SH3 2:14–16; source: spot synthesis on cellulose membrane

binding result (TIMP-1): binds
B2: MMP1 fragment FREYNLHRVAAHELGHSL (peptide)
peptide: FREYNLHRVAAHELGHSL
notes: stretch of MMP-1; union of positive overlapping dodecapeptide spots 4:11–14; also called MMP1 4:11–14; source: spot synthesis on cellulose membrane
